# Results taken from the nanobody polyreactivity screen of Harvey et al. (2022).
# Experiment: yeast display, Sf9 membrane polyspecificity reagent, FACS + sequencing; frameworks hold sequencing errors
# In short: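 Nanobodies came from a synthetic yeast display library in Saccharomyces cerevisiae BJ5465, induced with galactose for 36–48 hours and stained for 1 hour at 4 °C with 10% biotinylated, detergent-solubilized Sf9 membrane reagent. Cells were enriched on streptavidin microbeads and then FACS-sorted, with low and high (top ~1%) gates set on anti-HA fluorescence for expression and streptavidin fluorescence for reagent binding. Each polyreactivity label reflects the gate a clone came from. Genes were amplified by colony PCR, sequenced by MiSeq 2 × 250 and filtered by CDR length.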
row,Sequence,polyreactivity (PSR sort gate)
1,QVQLVESGGGLVQAGGSLRLSCAASGSTFAINAMGWYRQAPGKERELVAAISSSGSTNYADSVKGRFTISRDNAKNTVYLQMNSLKPEVTAVYYCAADRVWGTPQAYVPSQFDYWGQGTQVTVSS,low polyreactivity
2,QVQLVESGGGLVQAGGSLRLSCAASGSTFAINTMGSYREAPGKERELVAAISWSGGSTYYADSVKGRFTISRDNAKNTVYLQMNSLKPEDTAVYYCAARVPGWYVPGYNVYYWGQGTQVTVSS,high polyreactivity
3,QVQLVESGGGLVQAGGSLRLSCAASGSTFAIYAMGWYRPAPGKERELVASISGGSTNYADSVKGRFTISRDNAKNTVDLQMNSLKPEDTADYYCAARGALHHWYRYDYWGQGTQVTVSS,low polyreactivity
4,QVQLVESGGGLVQAGGSLRLSCAASGSTFAIYAMGWYRQAPGKERELVASISGGSTNYADSVKGRFTISRDNAKNTVYLQMNSLKPEDTAVYYCAARGALHHWYRYDYWGQVTQVTVSS,low polyreactivity
5,QVQLVESGGGLVQAGGSLRLSCAASGSTFAPNAMGWYRQAPGKERELVAAIRTNTGSTYYADSVKGRFTISRDNAKNTVYLQMNSLKPEDTAVYYCAAVFSGFYYAYDYWGQGTQVTVSS,high polyreactivity
6,QVQLVESGGGLVQAGGSLRLSCAASGSTFAPNTMGWYRQAPGKERELVARITSSDGSTTYADSVKGRFTISRDNAKNTVYLQMNSLKPEDTAVYYCAADYGRRWGYDYWGQGTQVTVSS,low polyreactivity
7,QVQLVESGGGLVQAGGSLRLSCAASGSTFAPYAMGWYRQAPGKERELVAAIRSSGGSTYYADSVKGRFTISRDNAKNTVYLQMNSLKPEDTAVYYCSDDYYTSADYVDYYYWGQGTQVTVSS,low polyreactivity
8,QVQLVESGGGLVQAGGSLRLSCAASGSTFAPYAMGWYRQAPGKERELVATISFRGGSTYYADSVKGRFTISRDNEMNTVFLEMNNLKPEDTAVYYCNAQRRYPYGYGYWGQGTQVTVSS,high polyreactivity
9,QVQLVESGGGLVQAGGSLRLSCAASGSTFAQNAMGWYRQEPGKERELVAAISRRGGSTYYADSVKGRFTISRDNAKNTVYLQMISLKPEDTAVYYCAADQPVRQLHRDDYWGQGTQVTVSS,low polyreactivity
10,QVQLVESGGGLVQAGGSLRLSCAASGSTFARNAMGWYRQAPGKERELVAAITTRGSSTYYADSVKGRFTISRDNAKNTVYLQMNSLKPEDTAVYYCAARTQAPLGKYGYWGQGTQVTVSS,high polyreactivity
11,QVQLVESGGGLVQAGGSLRLSCAASGSTFARNTMGWSRQAPGKEREIVAAIDWSGGNTYYADSVKGRFTISRDNAKNTVYLQMNSLKPEDTAVYNCYDYWGQGTQVTVSS,low polyreactivity
12,QVQLVESGGGLVQAGGSLRLSCAASGSTFARYAMGWYRQAPGKDREFVAVSTSGGSTYYADSVNGRFTISRDNAKNPVYLQMNSLKPEDTAVYYCAAQSYFVFGSYRRYYGYDYWGQGTQVTVSW,high polyreactivity
13,QVQLVESGGGLVQAGGSLRLSCAASGSTFARYAMGWYRQAPGKERELVAAISANGGITYYADSVKGRFTISRDNAKNTVYLQMNSLKPEDTAVYYCAARKSAYRFYRMNYWGQGTQVTVSS,high polyreactivity
14,QVQLVESGGGLVQAGGSLRLSCAASGSTFARYAMGWYRQAPGKERELVAAISRRGGSTYYADSVKGRFTISRDNAKNTVYLQINSLKPEDTAVYYCAARYGIITSFEYDYWGQGTQVTVSS,high polyreactivity
15,QVQLVESGGGLVQAGGSLRLSCAASGSTFARYAMGWYRQAPGKERELVAAITWGGGGTYADSVKGRFTISRDNAKNTVSLQMNSLKPEDTAVYYCNAYGPLILFIGFRLDYWGQGTQVTVSS,low polyreactivity
16,QVQLVESGGGLVQAGGSLRLSCAASGSTFARYAMVWYRQAPGKERELVAVIRSGGSTNYADSVKGRFTISRDNAKNTVYLQMNSLKPEDTAGAADQWTIHRWATYGYWGQGTQVTVSS,low polyreactivity
17,QVQLVESGGGLVQAGGSLRLSCAASGSTFARYVMGWYRQAPGKDRELVAAIRSTGGRTYYADSVKGRFTISRDNAKNTVYLQMNSLKPEDTAVYYCAAAFGQYSRKRFDYWGQGTQVTVSS,high polyreactivity
18,QVQLVESGGGLVQAGGSLRLSCAASGSTFASNAMGWYRQAPGKERELVAAISRSGGTTYYADSVKGRFTISRDNAKNTVYLQMNSLKPEDTAVYYCAVYGYRFYKAVKYYYWGQGTQVTVSS,high polyreactivity
19,QVQLVESGGGLVQAGGSLRLSCAASGSTFASNAMGWYRQAPGKERELVATINGDGSTNYADSVKGRFTISRDNAKNTVYLQMNSLKPEDTAVYYCNARYDYYGFWYQPYTLEVDYWGQGTQVTVSS,low polyreactivity
20,QVQLVESGGGLVQAGGSLRLSCAASGSTFASNVMGWYRQAPGKERELVAAISRSGGNTYYADSVKGRFTISRDIAKNTVYLQMNSLKPEDTAVYYCAKYPFTRISYDYWGQGTLVTVSS,high polyreactivity
21,QVQLVESGGGLVQAGGSLRLSCAASGSTFASNVMGWYRQAPGKERELVAAITRGDRTHYAHSVKGRFTISRDNAKNTVYLQMNSLKPEDPAVYYCAKVTTLGRSRDYWGQGTQVTVSS,low polyreactivity

row,Sequence,polyreactivity (PSR sort gate)
1,QVQLVESGGGLVQAGGSLRLSCAASGSTFASYAMGWYRQAPGKETELVASITRRGCSTDYADSVKGRFTISRDNAKNTVDFPMNLLKPEDTAVYYCATYSYPERTGGHRTHYYWGQGTQVTVSS,high polyreactivity
2,QVQLVESGGGLVQAGGSLRLSCAASGSTFASYAMGWYRQAPGKQRELVAAITDSGGSTYYADSVKGRFTISRDNAKNTVYLQMNSLKPEDTAVSYCAAYGRYFSYHDYDYWGQGTQVTVSS,low polyreactivity
3,QVQLVESGGGLVQAGGSLRLSCAASGSTFASYVMGGYSQAPGKERELVAGIDVRGVSTYYADSVKGRFTISRDNAKNTVYLQMNSLKPEDTAVYYCAIDNRYEMDYWGQGTQVTVSS,low polyreactivity
4,QVQLVESGGGLVQAGGSLRLSCAASGSTFAVYAMGWYRQAPGKERELVAVISRGANTNYADSVKGRFTISRDNAKNTVYLQMNSLKPEDTAVYYCAAVDGYDSHDTGEYYYWGQGTQVSVSS,low polyreactivity
5,QVQLVESGGGLVQAGGSLRLSCAASGSTFAVYTMGWYRQAPGKERELSTSYADSVKGRFTISRDNAKNTVYLQMNSLKPEDTAVYYCAADYDAWYDDIEYDYWGQGTQVTVSS,low polyreactivity
6,QVQLVESGGGLVQAGGSLRLSCAASGSTFAWYDMGWYRQAPGNEREFVAAIDYGGGSTYADSVKGRFTISRDKEKNTVYLQMNSLKPEDTAVYYCNADNWVYLYDYWGQGTQVTVSS,low polyreactivity
7,QVQLVESGGGLVQAGGSLRLSCAASGSTFAYAMGCYRQAPGKERELVAAIRTTGGSTYYADSVKGRFTISRDNAKNTVYFQMNSLNPEDSAVYYCAAVWGYGQYGSKYYYKYGYWGQGTQVTVSS,high polyreactivity
8,QVQLVESGGGLVQAGGSLRLSCAASGSTFAYNAMGWYRQAPGKERELVAAIRISGGTTYYADSVKGRFTISRDNAKNTVYLQMNSLKREDTAVYYCAAGTAGTTGSPKFSGYGYDYWGQGTQVTVSS,low polyreactivity
9,QVQLVESGGGLVQAGGSLRLSCAASGSTFAYNAMGWYRQAPGKERELVAAISWRGGSTYYADSVKGRFTISRDNAKNTVYLQMNSLKPEDTAVYYCAALYPYKREDYWGQGTQVTVSS,high polyreactivity
10,QVQLVESGGGLVQAGGSLRLSCAASGSTFAYNAMGWYRQAPGKERELVAVITWSDDRTYYADSVKGRFTISRDNAKNTVYLQMNSLKPEDTSVYYCAADRSGYWHYYTPYDYWGQGTQVTVSS,low polyreactivity
11,QVQLVESGGGLVQAGGSLRLSCAASGSTFAYNDMGWYRQAPGKERELVADIRSGGNTNYADSVKGRFTISRDNAKNTVYLQMNSLKPEDTAFYYCNVKYFVVAGYRYVKFDYWGQGTQVTVSS,low polyreactivity
12,QVQLVESGGGLVQAGGSLRLSCAASGSTFAYNVMGWYRQAPGKERELVAAITISGTSTYYADSVKGRFTISRDNAKNTVYLQMNSLKPEDTAVYYCAARRDRGRVKFYYWGQGTQVTVSS,high polyreactivity
13,QVQLVESGGGLVQAGGSLRLSCAASGSTFAYYAMGWYRQAPGKERELVAAISWRGGSTYYADSVKGRFTISRDNAKNTVYLLMNILKPEVTAVYYCAAARDRWGNYWGQGTQVTVSS,high polyreactivity
14,QVQLVESGGGLVQAGGSLRLSCAASGSTFAYYAMGWYRQAPGKERELVAAITSSGGSTYYADSVKGRFTISRDKAKNTVYLQMNSLKPEDTAVYYCNARYRRKSWRPFDYWGQGTQVTVSS,high polyreactivity
15,QVQLVESGGGLVQAGGSLRLSCAASGSTFAYYVMGWYRQAPGKERELVAAISRGGRTYYADSVKGRFTISRDNAKNTVYLQMNSLKPEDTAVSYCAKPYHQRSAKVDYWGQGTQVTVSS,low polyreactivity
16,QVQLVESGGGLVQAGGSLRLSCAASGSTFAYYVMGWYRQAPGKERELVAAITSSGGRTYYADSVKGRFTISRDNAKNTVYLQMNSLKPEDTAVYYCAKVSQRRVDNSDYDYWGQGTQVTVSS,high polyreactivity
17,QVQLVESGGGLVQAGGSLRLSCAASGSTFCGYAMGWYRQAPGKERELVAAITNGGSTYADSVKGRFTISRDNAKNTVYLQMNSLKPEDTAVYYCNTETGPSPVPVYDTEVDSWGQRTQVTVSS,low polyreactivity
18,QVQLVESGGGLVQAGGSLRLSCAASGSTFCYSVMGWYRQEPRTEREFVAAISTRGDSTYYADSVKGRFTLSRDNAKNTVYLQMNSLKPEDTAVYYCAKSRQSCGRVRLDYWGQGTQVTVSS,low polyreactivity
19,QVQLVESGGGLVQAGGSLRLSCAASGSTFDANTMGWYRQAPGKERELVAAISSNGGRTYYADSVKGRFTISRDNAKNTVYLQMNSLKPEDTAVYYCAATSYYRYRETYDYWGQGTQVTVSS,high polyreactivity
20,QVQLVESGGGLVQAGGSLRLSCAASGSTFDAYAMGLYRQAPGKERELVAAITNAGSTNYADSVKGRFTISRDNAKNTVYLQMNSLKPEDTAVYYCATDWYHRYLDGRYDYWGQGTQVTVSS,low polyreactivity
